Reference: patent publication US20200239573A1 (CRESCENDO BIOLOGICS, published 2020)

Key:
[1] = molecular target: T1, recombinant human PD-1 Fc chimera (human, UniProt Q15116 25-167); assay: HTRF binding, 2 nM PD-1, anti-Fc cryptate and anti-His-D2
T1 construct: Bought protein; also called human PD-1-huFc; huPD-1-Fc; not shown: human Fc
Protocol: (§1) e) Species Cross Reactivity Testing Purified […] were tested for their ability to bind to human PD-1 (R&D Systems cat no. 1086-PD), cynomolgus PD-1 (Acro Biosystems cat no. PD-1-05254) and mouse PD-1 (R&D Systems cat no. 1021-PD) in an HTRF Binding assay format. All reagents and serially diluted VH were prepared in assay buffer containing PBS, 0.1% BSA and 0.4M Potassium Fluoride. Samples or assay buffer (non-specific binding) were incubated with 2 nM human/cynomolgus or mouse PD-1, 1 nM Anti human-Fc Cryptate PAb (Cisbio cat. no. 61HFCKLB) and 30 nM anti His-D2 (CisBio cat no 61HISDLA) in black 384-shallow well assay plates for a minimum of 3 hours at room temperature. Time-resolved fluorescent emission at 620 nm and 665 nm was measured following excitation at 337 nm on the BMG PHERAstar plate reader. The HTRF ratio were calculated ((665 nm emission/620 nm emission)*10000) and the data corrected for (non-specific binding) to give the specific binding signal.

[2] = molecular target: T2, cynomolgus PD-1 recombinant protein (cynomolgus, UniProt B0LAJ3 25-170); assay: as above
T2 construct: Detected with anti human-Fc cryptate, so probably Fc tagged; also called cyno PD-1; cynomolgus PD-1 (Acro Biosystems cat no. PD-1-05254); not shown: The vendor's carrier tag; It is probably a human Fc, since detection used anti human-Fc cryptate
T2 sequence (B0LAJ3 entry or part of it limits assumed): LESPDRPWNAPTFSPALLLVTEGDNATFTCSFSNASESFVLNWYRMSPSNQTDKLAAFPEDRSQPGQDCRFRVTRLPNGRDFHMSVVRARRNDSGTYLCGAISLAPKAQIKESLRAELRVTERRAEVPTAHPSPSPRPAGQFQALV
Protocol: as §1

[3] = molecular target: T3, human PD-1 expressed on cells (CHO human PD-1 cells) (human, UniProt Q15116 21-288); assay: FMAT 1.57 epitope competition on CHO human PD-1 cells; competitor 1.57-Strep; sample kept 7 days in human serum
T3 construct: also called CHO TREX human PD-1 cell line; CHO PD-1
T3 sequence (Q15116 21-288): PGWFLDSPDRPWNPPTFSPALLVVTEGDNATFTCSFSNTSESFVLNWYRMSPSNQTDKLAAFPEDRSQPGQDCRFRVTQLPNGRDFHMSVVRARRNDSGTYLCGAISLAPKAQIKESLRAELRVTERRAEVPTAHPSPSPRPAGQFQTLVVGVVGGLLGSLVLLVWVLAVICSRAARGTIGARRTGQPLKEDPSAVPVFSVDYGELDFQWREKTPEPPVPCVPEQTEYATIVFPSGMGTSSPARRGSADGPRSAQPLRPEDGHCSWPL

[4] = molecular target: T3, human PD-1 expressed on cells (CHO …); assay: FMAT inhibition; 200 pM PD-L2 on CHO human PD-1 cells
Protocol: All reagents and serially diluted VH were prepared in FMAT assay buffer. […] Plates were incubated for 2 hours at room temperature then fluorescence measured in the FL2 (502 nm-537 nm) and FL5 (677-800 nm) channels on the Mirrorball plate reader (TTP) following excitation at 488 nm and 640 nm. Data was expressed as a % of the total binding control (i.e. % control) after subtraction of the background signal determined from the non-specific binding control wells.

[5] = molecular target: T3, human PD-1 expressed on cells (CHO …); assay: FMAT 1.57 epitope competition on CHO human PD-1 cells; competitor 1.57-Strep; sample kept 4 days in human serum
[6] = molecular target: human PD-1 on primary human CD4+ T cells (human, UniProt Q15116 21-288); assay: flow cytometry, PHA-stimulated human CD4+ T cells, donor 3
Sequence of human PD-1 on primary human CD4+ T cells (Q15116 21-288): as above
Protocol: Binding of monovalent single domain antibodies and multivalent binding agents to T cells was measured using flow cytometry. […] T-cells were stimulated with 2.5 μg/ml PHA for 2-4 days in RPMI media supplemented with 10% FBS, 2 mM Glutamine, 1× Pen/Strep. Cells were transferred into 96 well plates (75000 per well), blocked for 10 mins with PBS/1% BSA, then incubated with serially diluted VH in staining buffer (PBS/1% BSA) for 1 hour at 4° C. Cells were washed with staining buffer by centrifugation then incubated with 10 μg/ml biotinylated Anti His antibody for 40 mins at 4° C. Cells were washed again then stained with Streptavidin Alexa Fluor-488 (10 μg/ml) and 1:5000 diluted Live Dead near IR stain (Molecular Probes cat no. L10119) for 30 mins at 4° C. After further washing cells were fixed and fluorescence measured by flow cytometry.

[7] = molecular target: T3, human PD-1 expressed on cells (CHO …); assay: FMAT 1.57 epitope competition on CHO human PD-1 cells; competitor 1.57-Strep; sample kept 0 days in human serum; Day 0, Human column
[8] = molecular target: T3, human PD-1 expressed on cells (CHO …); assay: FMAT 1.57 epitope competition on CHO human PD-1 cells; competitor 1.57-Strep; sample kept 7 days in mouse serum
Protocol: (§2) For the epitope competition assay reagents were prepared in FMAT assay buffer. […] Plates were incubated for a minimum of 1.5 hours at room temperature then fluorescence measured in the FL2 (502 nm-537 nm) and FL5 (677-800 nm) channels on the Mirrorball plate reader (TTP) following excitation at 488 nm and 640 nm. Data was expressed as a % of the total binding control (i.e. % control) after subtraction of the background signal determined from the non-specific binding control wells.
(§3) Serum stability of VH and multivalent VH constructs was assessed by measurement of their activity following incubation for 0, 1, 4 or 7 days in mouse serum (Sigma M5905).

[9] = molecular target: T1, recombinant human PD-1 Fc chimera; assay: SPR Biacore T200, PD-1-huFc amine-coupled, single cycle kinetics
[10] = molecular target: T3, human PD-1 expressed on cells (CHO …); assay: FMAT 1.57 epitope competition on CHO human PD-1 cells; competitor 1.57-Strep; sample kept 0 days in mouse serum
Protocol: as §2, §3

T1 sequence (Q15116 25-167 limits assumed, change not shown): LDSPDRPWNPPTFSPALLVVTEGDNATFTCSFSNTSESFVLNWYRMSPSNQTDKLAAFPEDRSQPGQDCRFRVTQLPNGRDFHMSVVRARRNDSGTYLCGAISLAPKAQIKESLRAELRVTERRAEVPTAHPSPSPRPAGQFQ

B1: Humabody® 1.92 (VHH)
VHH: EVQLVESGGGLVKPGGSLRLSCAASGFTFSDESMTWMRQAPGKGLEWVSYISSGGGVKFYADSVKGRFTISRDNAKNSLYLQMNSLRAEDTAVYYCAREAPLRLGESPHDAFDISGQGTMVTVSS
notes: human VH single domain antibody
- EC50 [1]: 2.6 nM
- EC50 [2]: 4.1 nM
- IC50 [3]: 5.4 nM
- IC50 [4]: 4 nM
- IC50 [5]: 6.1 nM
- EC50 [6]: 1.2 nM
- IC50 [7]: 5.7 nM
- IC50 [8]: 5.2 nM
- Kd [9]: 0.059 nM
- koff [9]: 3.67e-05 s⁻¹
- kon [9]: 620000 M⁻¹ s⁻¹
- IC50 [10]: 4.4 nM
